{"source": "patent US10155985B2", "about": "“Evaluation of eosinophilic esophagitis” (CHILDREN'S HOSPITAL MEDICAL CENTER, priority 2004, dated 2018)"}
{"test_system": "EE transcriptome", "test": "Genome-wide microarray transcript profiling of esophageal biopsies, EE patients vs normal individuals (EE transcriptome)", "conditions": "transcript level in esophageal biopsies of EE patients compared to normal individuals (NL); Affymetrix Human Genome U133 plus 2; p<0.01; >1 up-regulated, <1 down-regulated", "protocol": "Esophageal tissue obtained from patients previously diagnosed with EE was analyzed. Diagnosis was based on analysis of excised tissue from endoscopic biopsy. Tissues from patients with EE, as well as patients not having EE (controls) were subjected to genome-wide microarray transcript profiling (Affymetrix GeneChip). All work was performed at the Core facility at Children's Hospital Medical Center (Cincinnati Ohio).\nBriefly, RNA quality was first assessed using the Agilent bioanaiyzer (Agilent Technologies, Palo Alto Calif.). Only mRNA having a ratio of 28S/18S between 1.3 and 2 were subsequently used. RNA was converted to cDNA with Superscript choice for cDNA synthesis (Invitrogen, Carlsbad Calif.) and subsequently converted to biotinylated cRNA with Enzo High Yield RNA Transcript labeling kit (Enzo Diagnostics, Farmingdale N.Y.). After hybridization to the GeneChip (Affymetrix, Santa Clara Calif.), the chips were automatically washed and stained with streptavidin-phycoerythrin using a fluidics system. The chips were scanned with a Hewlett Packard GeneArray Scanner. Over 30,000 unique genes were screened.\nLevels of gene transcripts were determined from data image files, using algorithms in the Microarray Analysis Suite software (Affymetrix). Levels from chip to chip were compared by global scaling. Each gene was typically represented by a probe set of 16 to 20 probe pairs. Each probe pair consisted of a perfect match oligonucleotide and a mismatch oligonucleotide that contained a one base mismatch at a central position. Two measures of gene expression were used, absolute call and average difference. Absolute call is a qualitative measure in which each gene is assigned a call of present, marginal or absent, based on the hybridization of the RNA to the probe set. Average difference is a quantitative measure of the level of gene expression, calculated by taking the difference between […] of every probe pair and averaging the differences over the entire probe set. Data were normalized and an EE transcriptome gene list was created with results having p<0.01 (Welch t-test with or without false rate discovery) and ≥1.5-fold change.\nFor evaluation of EE using clinical and/or physical assessment, biopsy tissues (obtained from the distal esophagus during routine endoscopy) were submerged in formalin for routine pathological analysis with hematoxylin and eosin staining. Diagnosis was established based on the maximum eosinophil count per high power field (hpf) and basal layer expansion according to method known in the art (e.g., established criteria in Rothenberg et al., Pathogenesis and clinical features of eosinophilic esophagitis. J Allergy Clin Immunol 108 (2001) 891; Attwood et al., Esophageal eosinophilia with dysphagia. A distinct clinicopathologic syndrome. Dig Dis Sci 38 (1993)109; Fox et al., Eosinophilic esophagitis: its not just kid's stuff. Gastrointest Endosc 56 (2002) 26, each of which is expressly incorporated by reference herein in its entirety. Normal individuals (NL), n=13, served as a control and were defined as having 0 eosinophils/hpf and no basal layer expansion. Individuals with EE (n=76) were defined as having >24 eosinophils/hpf and extensive basal layer hyperplasia (expansion to about >⅓ of epithelium).\nThe data were analyzed by cluster analysis and ordered (standard correlation (A) and distance (B)) using Genespring software. […] Each column represented a separate individual and each line a gene. RNA from each patient was subjected to chip analysis using Affymetrix Human Genome U133 GeneChip plus 2."}
{"molecule": "S100P (nucleic acid, listed as Homo sapiens) DNA: TGAGGCTGCCTTATAAAGCACCAAGAGGCTGCCAGTGGGACATTTTCTCGGCCCTGCCAGCCCCCAGGAGGAAGGTGGGTCTGAATCTAGCACCATGACGGAACTAGAGACAGCCATGGGCATGATCATAGACGTCTTTTCCCGATATTCGGGCAGCGAGGGCAGCACGCAGACCCTGACCAAGGGGGAGCTCAAGGTGCTGATGGAGAAGGAGCTACCAGGCTTCCTGCAGAGTGGAAAAGACAAGGATGCCGTGGATAAATTGCTCAAGGACCTGGACGCCAATGGAGATGCCCAGGTGGACTTCAGTGAGTTCATCGTGTTCGTGGCTGCAATCACGTCTGCCTGTCACAAGTACTTTGAGAAGGCAGGACTCAAATGATGCCCTGGAGATGTCACAGATTCCTGGCAGAGCCATGGTCCCAGGCTTCCCAAAAGTGTTTGTTGGCAATTATTCCCCTAGGCTGAGCCTGCTCATGTACCTCTGATTAATAAATGCTTATGAAATGA", "Fold Change": 1.52}
{"molecule": "SEQ_ID_#901 (nucleic acid, listed as Homo sapiens, chemistry not fully specified; the letters are possibly those of the target site) DNA: CTCCTCGCCCTCCCCACCGACATCATGCTCCAGTTCCTGCTTGGATTTACACTGGGCAACGTGGTTGGAATGTATCTGGCTCAGAACTATGAT", "Fold Change": 0.643}
{"molecule": "SEQ_ID_#906 (nucleic acid, listed as Homo sapiens) DNA: TGCTTTTGTTGTTGTTTTTAATTTAAAAAGACAAAATTGTTCGCCTTGTATAGAAGTAGATACAGCTTAGAGAGCCAAGGTAACAAGAGGGGAAAAGTTTGTGTTGTCTGGTACTTTTGAGGGAGTCAGAAGCCTAAAGGGAGGCTCTAACTCATGATTCTCAGAAGACAACTGTTGTCAACAGTTCAAATGAGAACTGAACGGCCACACTCCTGCAGCTGAAAGGAGTCAATGCGAGCTGAGTTGCTCTCACCGAACAGAGTGCGTTCCCCGGGGAGGCAGGGAAAGGCCGGCTTGCACCTGCTCTGTCACCCAGCTCCACTCTTAGGACAGAAGAGGTCTGGAAAATGTCTGGG", "Fold Change": 0.64}
{"molecule": "SEQ_ID_#909 (nucleic acid, listed as Homo sapiens) DNA: TGCTTTTGTTGTTGTTTTTAATTTAAAAAGACAAAATTGTTCGCCTTGTATAGAAGTAGATACAGCTTAGAGAGCCAAGGTAACAAGAGGGGAAAAGTTTGTGTTGTCTGGTACTTTTGAGGGAGTCAGAAGCCTAAAGGGAGGCTCTAACTCATGATTCTCAGAAGACAACTGTTGTCAACAGTTCAAATGAGAACTGAACGGCCACACTCCTGCAGCTGAAAGGAGTCAATGCGAGCTGAGTTGCTCTCACCGAACAGAGTGCGTTCCCCGGGGAGGCAGGGAAAGGCCGGCTTGCACCTGCTCTGTCACCCAGCTCCACTCTTAGGACAGAAGAGGTCTGGAAAATGTCTGGG", "Fold Change": 0.639}
{"molecule": "SEQ_ID_#807 (nucleic acid, listed as Homo sapiens) DNA: TTAGCATTTTTAAATTTTATTATGACTTCATTTGTTTAAATATATATATATATATATATATATATATTTATTTATAGCTCTATGTGCCCACCGCCCCCGGCCCCCTCCCCGGCCCCTAGTTTTTCCCCCTGGCTTTCTGTCTAGTGGCTGTGTAGGGCAGAACCGTCTGCGTGCTCTTGTCTGACACTGTCTGGGTGCTGCTGTTCCTCGTGACCCTTCGAGTCTGTTCAGGGGCCAAGGTAGAGCCTGAGTGGCGGCTGGTCAGTGGAGAGCGCCGTGACTTGTAGGGGGCTGGGGAGGGCTTGTGGGGGCCTGCATGGGCCTCTGTATGGGCAGGCTCAGGGGGCAAGCCCACTTCTTCCTCCTCCACCTCCTGCTCACCGTCCCCCTCCTCATCGTC", "Fold Change": 1.514}
{"molecule": "SEQ_ID_#840 (nucleic acid, listed as Homo sapiens) DNA: TACCACACATCTTCTTTATTAATGCATTGACAATCAGTGAAGACAATGAAAACCCACCACTTTTGTCCGTGAACTGAGAAAGAAAATGGCAATGTCATATGGCATTAATGATGCATGAGATCTATGGGTGTAGTGTCACGTCTAGGCGTGTAGTAATCCAGTCTTCGGCCTTACTCCAGGGAGAAAGATTCAGCTTTGTTACTTTCCAGTCACTCTCTCCCGTAACACAGCACCAAGACCGTTTAAAGCACTTAATTAATTCACTTCAGCTTCGCTGGAGAGGTCTCAGGGTTCCCGAGACTCCATTACATAATATCTTTCACAAAGTCTATTCCCAGCTCGAATGGAAGATGGATTCTCATCCAGTGTGCGG", "Fold Change": 0.665}
{"molecule": "SEQ_ID_#915 (nucleic acid, listed as Homo sapiens) DNA: CAATAGGAGAAGCCAAGAAACGCAGATGCCGATGCTTAATCAACTCCGTCTCTCCCTCTAGTGACTCGGGGATAGCTGCCCTGATGCCAAGGCGATTGTCTTCTGGAAGCAGCCACGCCGTGTGAGGTTCCTCATCACTGCCCTGCATCTCCCTGCGAGCTCTCGGGGATAATTGCAAAATCACGTTTGATTCCAGGGAGCAGAAAGCAGCAGGAGCCGTGAATTCTCCAACTCTTAACTGGTCCTCGACTGAGCCACTTTTCCCTGCCCACCCATCCCTGTGGCGGATTCATTACAGTTATCCAAAGCCGGTTTTAACTTTGCTCCCCCTGGCTCAGAAGTCTGTCAGTGGGTCCTGAGCGGTTCACCATTCAAGTTTATTCCTATCAGCCTGGAATACAATGCTCTATCTG", "Fold Change": 0.638}
{"molecule": "SEQ_ID_#917 (nucleic acid, listed as Homo sapiens) DNA: TTGTTTGGAAAGATGAAAAATTTATTAGAAAAGATCTTTAAATGGCTTTTACTAAAGCGTCATTTAACAATTTTTCATATTATAGAAACAGCTTTTCATGGATGGTGTGACTGGGTCTGTATCCAAACCCGGTTCGGTTCCTGGAGCCAACGGCGTAGTTAACACTCAGCCTCTTGCAGTTAACACTCAGCCTCTTAACTGGGAGTGGCCCTGGAGCAAGTCGCTGGAATGTTCAAGCTCCGCGTCACTCATCGGTACCAAGTTGATGATCTCTGCCTAGGGTTCTTCGCCACCCTCAGGCTCAAGTCCCAGGAGGCCTCCTCCGCTGACTTGGGTGAACAGCTCTGAGTTCCGGAGAGGGTTCGGTCTGCGGAGAAGCGCGCGAGAGACAAGCATCCTCAAGGTTCTGGTACAAAATTTGGAAAATGACCTGGCGTTGAAATCTTTACTCCTCGTTTAAAAAGACCATCGAAAGGGAAAAAATAAAAGAAATTGCAGTTTATATTTTTGTTATCCCATGAAAAATTAGCTGCAGTGTTTTCCTCTTCATGCCAAAGAGATTAATATTTACGGTGAAGACTTTTCCAGGAAGTCGTGGTTTTCTGGGGCCCTGCCTCTGAGCCTTTTGTTTCCTCCTTTTTAAAAACACCGGATGAAAGACCCAGTGTGCCTTGGATCGCAGAGCGCGGCCGCATGTCTGCTTTGA", "Fold Change": 0.637}
{"molecule": "SEQ_ID_#808 (nucleic acid, listed as Homo sapiens) DNA: TTTCACTATAGAAAACCTTTAATAACAACTTCAGATTTACATGACCCTTCTGGTGCTCAGAACACTATGGATTAACACACACACTGGAAAGATACAGACACAGGAATCTGCTGCATTACCCCAAATGGCAAAGTCTTGACTGGGGCTTCAGCTCCTTTCCCAATCCAAAATTGGCACCTTTTTCCATGGAAATTCAAACTGCATCTCTAAATGATGGGGTACATGAACTGTCTGTTTCAAAAGTATTTAAAAACAAACAGGAAGTACAGCTTCCATTTCATTAAGAAAACACCACCACAAGACATGGTGCAGTATCTACTAGCTTAAAGTTTATCACTCCATTAGGGCTTATTGACAGCAGAAATGTGAATGTAGTAATGTAGAAATAAGGAAGAGAGCACTTAAGAAAAAAACAGTACAGAAGTTTTAGAGTTTTTTAAACTTTAATAATATGCTTGACTAATATAGTCAAAAGTGATATGCACTCGTGAAATTAACCCATTTTCTGAAGTCCAAATTAGCTATTAAAGTCTTTTTTTACCAAAAACATATAAGGATTTAGTACACTATATAGATTACATAGCTTTCCT", "Fold Change": 1.513}
